“And” between values parts separate entries of the source, which are not always exact repeats. Equal entries are not always repeated.
B1: Phenylalanine--tRNA ligase, mitochondrial, O95363 (parent)
chain: MVGSALRRGAHAYVYLVSKASHISRGHQHQAWGSRPPAAECATQRAPGSVVELLGKSYPQDDHSNLTRKVLTRVGRNLHNQQHHPLWLIKERVKEHFYKQYVGRFGTPLFSVYDNLSPVVTTWQNFDSLLIPADHPSRKKGDNYYLNRTHMLRAHTSAHQWDLLHAGLDAFLVVGDVYRRDQIDSQHYPIFHQLEAVRLFSKHELFAGIKDGESLQLFEQSSRSAHKQETHTMEAVKLVEFDLKQTLTRLMAHLFGDELEIRWVDCYFPFTHPSFEMEINFHGEWLEVLGCGVMEQQLVNSAGAQDRIGWAFGLGLERLAMILYDIPDIRLFWCEDERFLKQFCVSNINQKVKFQPLSKYPAVINDISFWLPSENYAENDFYDLVRTIGGDLVEKVDLIDKFVHPKTHKTSHCYRITYRHMERTLSQREVRHIHQALQEAAVQLLGVEGRF
B2: Beta-lactoglobulin, P02754 (parent)
chain: MKCLLLALALTCGAQALIVTQTMKGLDIQKVAGTWYSLAMAASDISLLDAQSAPLRVYVEELKPTPEGDLEILLQKWENGECAQKKIIAEKTKIPAVFKIDALNENKVLVLDTDYKKYLLFCMENSAEPEQSLACQCLVRTPEVDDEALEKFDKALKALPMHIRLSFNPTQLEEQCHI
B3: Lipase B, P41365 (parent)
chain: MKLLSLTGVAGVLATCVAATPLVKRLPSGSDPAFSQPKSVLDAGLTCQGASPSSVSKPILLVPGTGTTGPQSFDSNWIPLSTQLGYTPCWISPPPFMLNDTQVNTEYMVNAITALYAGSGNNKLPVLTWSQGGLVAQWGLTFFPSIRSKVDRLMAFAPDYKGTVLAGPLDALAVSAPSVWQQTTGSALTTALRNAGGLTQIVPTTNLYSATDEIVQPQVSNSPLDSSYLFNGKNVQAQAVCGPLFVIDHAGSLTSQFSYVVGRSALRSTTGQARSADYGITDCNPLPANDLTPEQKVAAAALLAPAAAAIVAGPKQNCEPDLMPYARPFAVGKRTCSGIVTP
B4: Serine hydroxymethyltransferase, P0A825 (parent)
chain: MLKREMNIADYDAELWQAMEQEKVRQEEHIELIASENYTSPRVMQAQGSQLTNKYAEGYPGKRYYGGCEYVDIVEQLAIDRAKELFGADYANVQPHSGSQANFAVYTALLEPGDTVLGMNLAHGGHLTHGSPVNFSGKLYNIVPYGIDATGHIDYADLEKQAKEHKPKMIIGGFSAYSGVVDWAKMREIADSIGAYLFVDMAHVAGLVAAGVYPNPVPHAHVVTTTTHKTLAGPRGGLILAKGGSEELYKKLNSAVFPGGQGGPLMHVIAGKAVALKEAMEPEFKTYQQQVAKNAKAMVEVFLERGYKVVSGGTDNHLFLVDLVDKNLTGKEADAALGRANITVNKNSVPNDPKSPFVTSGIRVGTPAITRRGFKEAEAKELAGWMCDVLDSINDEAVIERIKGKVLDICARYPVYA
B5: Gamma-crystallin S, P22914 (parent)
chain: MSKTGTKITFYEDKNFQGRRYDCDCDCADFHTYLSRCNSIKVEGGTWAVYERPNFAGYMYILPQGEYPEYQRWMGLNDRLSSCRAVHLPSGGQYKIQIFEKGDFSGQMYETTEDCPSIMEQFHMREIHSCKVLEGVWIFYELPNYRGRQYLLDKKEYRKPIDWGAASPAVQSFRRIVE
B6: Subtilisin-chymotrypsin inhibitor-2A, P01053 (parent)
chain: MSSVEKKPEGVNTGAGDRHNLKTEWPELVGKSVEEAKKVILQDKPEAQIIVLPVGTIVTMEYRIDRVRLFVDKLDNIAQVPRVG
B7: Chaperone Ric-8A, Q5E9J8 (parent)
chain: MEPRAVADALETGEEDVVMEALRAYNRENSQSFTFDDAQQEDRKRLAKLLVSVLEQGLPPSRRVIWLQSIRILSRDRSCLDSFTSRRSLQALACYAGISASQGSVPEPLNMDVVLESLKCLCNLVLSSPVAQALAAEAGLVVRLAERVGLCRQSSFPHDVQFFDLRLLFLLTALRTDVRQQLFQELQGVRLLTRALELTLGMTEGERHPELLPPQETERAMEILKVLFNITFDSIKREVDEEDAALYRHLGTLLRHCVMLAAAGDRTEELHGHAVNLLGNLPVKCLDVLLTLEPHEGSLEFLGVNMDVIRVLLSFMEKRLHQTHRLKESVAPVLSVLTECARMHRPARKFLKAQVLPPLRDVRTRPEVGELLRNKLVRLMTHLDTDVKRVAAEFLFVLCSESVPRFIKYTGYGNAAGLLAARGLMAGGRPEGQYSEDEDTDTDEYKEAKASINPVTGRVEEKPPNPMEGMTEEQKEHEAMKLVNMFDKLSRHRVIQPMGMSPRGQLTSLQDAMCETMEGQLSSDPDSDPD
B8: Penicillolysin, P47189 (parent)
chain: MRFTTLSTAFLALAQNVYAFPIESDLSALDVTLSQVSDTRIKAVVKNTGAENVTFVHLNFFRDSAPVKKVSVYRENNEVVFDGIKRRFQLQGLASESLTTLEAGEVLEDEFDIATTTDLSSGGAITLRSNGLVPVVKDGAVTGYLPYSSNDLKLNIDGAKASTVTKALKPLDRRTKETCSNASRKSALEKALSNTVKLANAAATAARSGSASKFSEYFKTTSSSTRSVVAARLEAVAKEAQSASSGSTTYYCSDTLGYCETNVLAYTLPARNIIANCDIYYSYLPALAGTCHQQDQATTTLHEFTHAPGVYSPGTDDLGYGYSAATSLSSSQAVLNADSYALYANAINLGC
B9: W74C, P95467 (parent)
chain: MKKALIASTALLLTAGVAAADVKISGYGRTGVIYYENDSDVNESRVQSRLRMNIDASSSTDSGVDFGARFRLQWDQGEEGEAQTNAGKLWVSAQGFTVEVGNVDTAFASNGLIYETGLGSYDRSVGFSAVTGAFFAYDSNGYGIDEVDRVGIRALYTLGDLTLQASYVDPDQSGTVIGVEEEFGFSVDYTWNERLELSAAAAFNGAGIDGNDIYFLGARYAVMDNARIGLNFVDAGDEEDGYDGKTIALYGDYTLADGRTNLEAYIANNDRDSNETDNAFGIGVNYDLGGARLGASLQRDYAENVTADFGVRFEF
B10: Tetracycline repressor protein class D, P0ACT4 (parent)
chain: MARLNRESVIDAALELLNETGIDGLTTRKLAQKLGIEQPTLYWHVKNKRALLDALAVEILARHHDYSLPAAGESWQSFLRNNAMSFRRALLRYRDGAKVHLGTRPDEKQYDTVETQLRFMTENGFSLRDGLYAISAVSHFTLGAVLEQQEHTAALTDRPAAPDENLPPLLREALQIMDSDDGEQAFLHGLESLIRGFEVQLTALLQIVGGDKLIIPFC
B11: Glutamate dehydrogenase, P96110 (parent)
chain: MPEKSLYEMAVEQFNRAASLMDLESDLAEVLRRPKRVLIVEFPVRMDDGHVEVFTGYRVQHNVARGPAKGGIRYHPDVTLDEVKALAFWMTWKTAVMNLPFGGGKGGVRVDPKKLSRNELERLSRRFFSEIQVIIGPYNDIPAPDVNTNADVMAWYMDTYSMNVGHTVLGIVTGKPVELGGSKGREEATGRGVKVCAGLAMDVLGIDPKKATVAVQGFGNVGQFAALLISQELGSKVVAVSDSRGGIYNPEGFDVEELIRYKKEHGTVVTYPKGERITNEELLELDVDILVPAALEGAIHAGNAERIKAKAVVEGANGPTTPEADEILSRRGILVVPDILANAGGVTVSYFEWVQDLQSFFWDLDQVRNALEKMMKGAFNDVMKVKEKYNVDMRTAAYILAIDRVAYATKKRGIYP

Variants of: B1
Details: Homo sapiens; pH 7.5; 25 °C; Urea; CD; Tris-HCl 50 mM; transition: 2; structure 3CMQ; whole UniProt chain shown

Variant | ddG of mutation (higher = less stable) | denaturant midpoint (higher = more stable)
S57C | -0.43 kcal/mol | 5.9 M
S57C N280S | 3.03 kcal/mol | 7.9 M
N280S | -0.51 kcal/mol | 5.7 M

Variants of: B2
Details: Bos taurus; pH 7.1; 30 °C; GdnHCl; CD; phosphate 0.11 M; NaCl 0.04 M; structure 1B0O; whole UniProt chain shown

Variant | ddG of mutation (higher = less stable) | unfolding free energy
W35Y | 6.91 kcal/mol | 4.3 kcal/mol

Variants of: B3
Details: Pseudozyma antarctica; pH 7; Thermal; Differential Scanning Fluorimetry; HEPES 10mM; structure 1TCA; whole UniProt chain shown

Variant | Tm | change of melting temperature, mutant - wild type (higher = more stable)
Q181C L188C | 46.1 °C | -8.7 °C
N194C F329C | 56.3 °C | 1.5 °C
A187C K333C | 55.9 °C | 1.1 °C

Same assay, conditions: Pseudozyma antarctica; pH 7; Thermal; CD; Tris-HCl 50 mM; reversible: No; structure 1TCA; whole UniProt chain shown

Variant | Tm | change of melting temperature, mutant - wild type (higher = more stable)
V246D | 55.7 °C | -2 °C
V235I A306E | 52.1 °C | -5.6 °C
V235I | 58.5 °C | 0.8 °C

Variants of: B4
Details: Escherichia coli (strain K12); pH 7.5; 30 °C; Urea; Fluorescence; Tris-HCl 20 mM; structure 1DFO; whole UniProt chain shown

Variant | unfolding free energy
W16Y | 3.7 kcal/mol
W385F | 4 kcal/mol
W16F W183F | 5.9 kcal/mol

Same assay, conditions: Escherichia coli (strain K12); pH 7.5; 30 °C; Urea; Fluorescence; Tris-HCl 20 mM; transition: 3; structure 1DFO; whole UniProt chain shown

Variant | unfolding free energy
W183F W385F | 4.2 kcal/mol and 5.5 kcal/mol

Variants of: B5
Details: Homo sapiens; pH 7.4; Thermal; Fluorescence; Disodium phosphate; NaCl; structure 6FD8; whole UniProt chain shown

Variant | Tm | change of melting temperature, mutant - wild type (higher = more stable)
S39C | 61.3 °C and 58.8 °C | -6.2 °C and -7 °C

Variants of: B6
Details: Hordeum vulgare; pH 6.3; 25 °C; GdnHCl; Fluorescence; MES 50 mM; structure 2CI2; whole UniProt chain shown

Variant | unfolding free energy
L21M | 7.3 kcal/mol
P53E F70A | 2.61 kcal/mol

Same assay, conditions: Hordeum vulgare; pH 7; 30 °C; GdnHCl; Fluorescence; MOPS 50 mM; structure 2CI2; whole UniProt chain shown

Variant | ddG of mutation (higher = less stable) | denaturant m value | unfolding free energy
I40V | 1.17 kcal/mol | 1.92 kcal/mol/M | 5.88 kcal/mol
I40L | 1.96 kcal/mol | 1.92 kcal/mol/M | 5.09 kcal/mol

Same assay, conditions: Hordeum vulgare; pH 4.2; 50 °C; GdnHCl; Fluorescence; Sodium acetate 50 mM; reversible: yes; structure 2CI2; whole UniProt chain shown

Variant | ddG of mutation (higher = less stable) | unfolding free energy
R68A | 1.4 kcal/mol | 4.1 kcal/mol

Variants of: B7
Details: Bos taurus; pH 7.5; Thermal; DSF; Tris-HCl; KCl; structure 6N85; whole UniProt chain shown

Variant | Tm | change of melting temperature, mutant - wild type (higher = more stable)
A173W | 45.6 °C | -1.2 °C
R75M | 45.9 °C | -0.9 °C
F169R | 45.6 °C | -1.2 °C
N123E | 46.7 °C | -0.1 °C

Variants of: B8
Details: Penicillium citrinum; pH 5; Thermal; CD; sodium acetate 10 mM; reversible: no; whole UniProt chain shown

Variant | Tm | change of melting temperature, mutant - wild type (higher = more stable)
R207E E234R | 70 °C | 2 °C
T255P | 71 °C | 3 °C
A341E | 70 °C | 2 °C

Variants of: B9
Details: Paracoccus denitrificans; pH 8; Thermal; Absorbance; Tris-HCl 50 mM; NaCl 100 mM; reversible: no; whole UniProt chain shown

Variant | Tm | change of melting temperature, mutant - wild type (higher = more stable)
W74C | 82.4 °C | -3.8 °C
E81Q | 84.2 °C | -2 °C
E81Q D148N | 82.3 °C | -3.9 °C

Variants of: B10
Details: Escherichia coli; pH 7.5; 22 °C; Urea; CD; Tris-HCl 50 mM; NaCl 150 mM; reversible: yes(92%); structure 2TRT; whole UniProt chain shown

Variant | denaturant midpoint (higher = more stable)
R128E | 4.9 M

Variants of: B11
Details: Thermotoga maritima (strain ATCC 43589 / DSM 3109 / JCM 10099 / NBRC 100826 / MSB8); pH 7.4; Thermal; DSC; Sodium phosphate 20 mM; reversible: no; structure 1B26; whole UniProt chain shown

Variant | Tm
N118R | 88.7 °C

Source: FireProtDB
